Laboratory results from article PMC4841555 (2016).
Each block holds one binder with its values, some of them ahead of it.

Biological target: Amyloid-beta(1-42) Aβ(1-42) (Homo sapiens, UniProt P05067)
Assay: BLI

Kd: 75 µM
B1: DB3 (peptide)
chain: RPITRLRTHQNR

Kd: 1 µM
B2: DB3DB3 (peptide)
chain: RPITRLRTHQNRRPITRLRTHQNR
